Experimental data published in paper PMC10342849, “Feruloyl Esterase (LaFae) from Lactobacillus acidophilus: Structural Insights and Functional Characterization for Application in Ferulic Acid Production” (International Journal of Molecular Sciences, 2023).
One block for each molecule: values may come before it.

Assays:
[1] = target: Feruloyl esterase (LaFae) from Lactobacillus acidophilus (Lactobacillus acidophilus); test: AUC; 20 mM Tris-HCl (pH 8.0), ProteomeLab XL-A, sedimentation profile at 280 nm analysed with SEDFIT
[2] = target: Feruloyl esterase (LaFae) from Lactobacillus acidophilus (Lactobacillus acidophilus); test: SEC; gel filtration on HiPrep S-200R column in 20 mM Tris-HCl (pH 8.0), molecular weight from a standard curve of protein standards
purified protein = substrate: CCCC(=O)Oc1ccc([N+](=O)[O-])cc1; test: purified protein; assay type: biochemical, Lactobacillus acidophilus; conditions: hydrolysis; His6-tagged enzyme

percent of the sample in the dimer peak [1]: 95.3%
stoichiometry N [1]: 2
stoichiometry N [2]: 2
Molecule: Feruloyl esterase (LaFae) from Lactobacillus acidophilus (enzyme)

B1: LaFae (Lactobacillus acidophilus NCFM) (protein)
chain: MSRITIERDGLTLVGDREEPFGEIYDMAILMHGFTANRNTPLLRQIADNLRDENVASVRFDFNGHGESDGAFEDMTVCNEIADAQKILEYVRTDPHVRNIFLVGHSQGGVVASMLAGLYPDIVKKVVLLAPAAQLKDDALNGDTQGATYNPEHIPAAIPFHGKKLGGFYLRTAQVLPIYEIAKHYTNPVSIIVGSNDQVVAPKYSKKYDEVYENSELHMVPDADHSFTGQYKDSAVDLTAEFLKPLF
notes: His6-tagged, pET-21a (BamHI/XhoI), E. coli BL21(DE3); dimer in solution; catalytic triad Ser106, Asp197, His225
Km (purified protein): 1160 µM
